The source of these data is PMC8298264, “Function of cofactor Akirin2 in the regulation of gene expression in model human neutrophil-like HL60 cells” (Bioscience Reports, 2021).

B1: sp¦P13995¦MTDC_HUMAN (protein, UniProt P13995 36-350, looked up)
Bifunctional …: EAVVISGRKLAQQIKQEVRQEVEEWVASGNKRPHLSVILVGENPASHSYVLNKTRAAAVVGINSETIMKPASISEEELLNLINKLNNDDNVDGLLVQLPLPEHIDERRICNAVSPDKDVDGFHVINVGRMCLDQYSMLPATPWGVWEIIKRTGIPTLGKNVVVAGRSKNVGMPIAMLLHTDGAHERPGGDATVTISHRYTPKEQLKKHTILADIVISAAGIPNLITADMIKEGAAVIDVGINRVHDPVTAKPKLVGDVDFEGVRQKAGYITPVPGGVGPMTVAMLMKNTIIAAKKVLRLEEREVLKSKELGVATN
B2: sp¦B0I1T2¦MYO1G_HUMAN (protein, UniProt B0I1T2 1-1018, looked up)
Unconventional myosin-Ig: MEDEEGPEYGKPDFVLLDQVTMEDFMRNLQLRFEKGRIYTYIGEVLVSVNPYQELPLYGPEAIARYQGRELYERPPHLYAVANAAYKAMKHRSRDTCIVISGESGAGKTEASKHIMQYIAAVTNPSQRAEVERVKDVLLKSTCVLEAFGNARTNRNHNSSRFGKYMDINFDFKGDPIGGHIHSYLLEKSRVLKQHVGERNFHAFYQLLRGSEDKQLHELHLERNPAVYNFTHQGAGLNMTVHSALDSDEQSHQAVTEAMRVIGFSPEEVESVHRILAAILHLGNIEFVETEEGGLQKEGLAVAEEALVDHVAELTATPRDLVLRSLLARTVASGGRELIEKGHTAAEASYARDACAKAVYQRLFEWVVNRINSVMEPRGRDPRRDGKDTVIGVLDIYGFEVFPVNSFEQFCINYCNEKLQQLFIQLILKQEQEEYEREGITWQSVEYFNNATIVDLVERPHRGILAVLDEACSSAGTITDRIFLQTLDMHHRHHLHYTSRQLCPTDKTMEFGRDFRIKHYAGDVTYSVEGFIDKNRDFLFQDFKRLLYNSTDPTLRAMWPDGQQDITEVTKRPLTAGTLFKNSMVALVENLASKEPFYVRCIKPNEDKVAGKLDENHCRHQVAYLGLLENVRVRRAGFASRQPYSRFLLRYKMTCEYTWPNHLLGSDKAAVSALLEQHGLQGDVAFGHSKLFIRSPRTLVTLEQSRARLIPIIVLLLQKAWRGTLARWRCRRLRAIYTIMRWFRRHKVRAHLAELQRRFQAARQPPLYGRDLVWPLPPAVLQPFQDTCHALFCRWRARQLVKNIPPSDMPQIKAKVAAMGALQGLRQDWGCRRAWARDYLSSATDNPTASSLFAQRLKTLQDKDGFGAVLFSSHVRKVNRFHKIRNRALLLTDQHLYKLDPDRQYRVMRAVPLEAVTGLSVTSGGDQLVVLHARGQDDLVVCLHRSRPPLDNRVGELVGVLAAHCQGEGRTLEVRVSDCIPLSHRGVRRLISVEPRPEQPEPDFRCARGSFTLLWPSR
B3: sp¦O60306¦AQR_HUMAN (protein, UniProt O60306 1-1485, looked up)
RNA helicase aquarius: MAAPAQPKKIVAPTVSQINAEFVTQLACKYWAPHIKKKSPFDIKVIEDIYEKEIVKSRFAIRKIMLLEFSQYLENYLWMNYSPEVSSKAYLMSICCMVNEKFRENVPAWEIFKKKPDHFPFFFKHILKAALAETDGEFSLHEQTVLLLFLDHCFNSLEVDLIRSQVQQLISLPMWMGLQLARLELELKKTPKLRKFWNLIKKNDEKMDPEAREQAYQERRFLSQLIQKFISVLKSVPLSEPVTMDKVHYCERFIELMIDLEALLPTRRWFNTILDDSHLLVHCYLSNLVRREEDGHLFSQLLDMLKFYTGFEINDQTGNALTENEMTTIHYDRITSLQRAAFAHFPELYDFALSNVAEVDTRESLVKFFGPLSSNTLHQVASYLCLLPTLPKNEDTTFDKEFLLELLVSRHERRISQIQQLNQMPLYPTEKIIWDENIVPTEYYSGEGCLALPKLNLQFLTLHDYLLRNFNLFRLESTYEIRQDIEDSVSRMKPWQSEYGGVVFGGWARMAQPIVAFTVVEVAKPNIGENWPTRVRADVTINLNVRDHIKDEWEGLRKHDVCFLITVRPTKPYGTKFDRRRPFIEQVGLVYVRGCEIQGMLDDKGRVIEDGPEPRPNLRGESRTFRVFLDPNQYQQDMTNTIQNGAEDVYETFNIIMRRKPKENNFKAVLETIRNLMNTDCVVPDWLHDIILGYGDPSSAHYSKMPNQIATLDFNDTFLSIEHLKASFPGHNVKVTVEDPALQIPPFRITFPVRSGKGKKRKDADVEDEDTEEAKTLIVEPHVIPNRGPYPYNQPKRNTIQFTHTQIEAIRAGMQPGLTMVVGPPGTGKTDVAVQIISNIYHNFPEQRTLIVTHSNQALNQLFEKIMALDIDERHLLRLGHGEEELETEKDFSRYGRVNYVLARRIELLEEVKRLQKSLGVPGDASYTCETAGYFFLYQVMSRWEEYISKVKNKGSTLPDVTEVSTFFPFHEYFANAPQPIFKGRSYEEDMEIAEGCFRHIKKIFTQLEEFRASELLRSGLDRSKYLLVKEAKIIAMTCTHAALKRHDLVKLGFKYDNILMEEAAQILEIETFIPLLLQNPQDGFSRLKRWIMIGDHHQLPPVIKNMAFQKYSNMEQSLFTRFVRVGVPTVDLDAQGRARASLCNLYNWRYKNLGNLPHVQLLPEFSTANAGLLYDFQLINVEDFQGVGESEPNPYFYQNLGEAEYVVALFMYMCLLGYPADKISILTTYNGQKHLIRDIINRRCGNNPLIGRPNKVTTVDRFQGQQNDYILLSLVRTRAVGHLRDVRRLVVAMSRARLGLYIFARVSLFQNCFELTPAFSQLTARPLHLHIIPTEPFPTTRKNGERPSHEVQIIKNMPQMANFVYNMYMHLIQTTHHYHQTLLQLPPAMVEEGEEVQNQETELETEEEAMTVQADIIPSPTDTSCRQETPAFQTDTTPSETGATSTPEAIPALSETTPTVVGAVSAPAEANTPQDATSAPEETK
B4: sp¦Q86Y56¦DAAF5_HUMAN (protein, UniProt Q86Y56 2-855, looked up)
Dynein axonemal assembly …: AALGVAEAVAAPHPAEGAETAEAVELSRALSRLLPGLEADSKPGRRRALEALRRALEEPGPAADPTAFQGPWARLLLPRLLRCLSDPAEGCRALAVHLLDLGLRRAARPRDALPRLLPALAARLAGPVPARRPPEACEELRLALVQLLGLAVDLCGAALAPHLDDALRALRCSLLDPFAAVRRESCSCAAALAQATPDHFHMQSESLIGPLMQTISHQHWKVRVAAIEATGAVIHFGNGKSVDDVLSHFAQRLFDDVPQVRRAVASVVGGWLLCLRDRYSFFHKLIPLLLSSLNDEVPEVRQLAASLWEDVGLQWQKENEEDLKDKLDFAPPTPPHYPPHERRPVLGCRELVFRNLSKILPALCHDITDWVVGTRVKSAQLLPVLLLHAEDHATQHLEVVLRTLFQACTDEEAAVVQSCTRSAELVGTFVSPEVFLKLILSTLKKTPSASGLLVLASAMRGCPREALQPHLAAIATELAQAHICQASENDLYLERLLLCVQALVSVCHEDCGVASLQLLDVLLTIVALAGATGLRDKAQETMDSLAMVEGVSSCQDLYRKHIGPLLERVTASHLDWTAHSPELLQFSVIVAQSGPALGEALPHVVPTLRACLQPSQDPQMRLKLFSILSTVLLRATDTINSQGQFPSYLETVTKDILAPNLQWHAGRTAAAIRTAAVSCLWALTSSEVLSAEQIRDVQETLMPQVLTTLEEDSKMTRLISCRIINTFLKTSGGMTDPEKLIRIYPELLKRLDDVSNDVRMAAASTLVTWLQCVKGANAKSYYQSSVQYLYRELLVHLDDPERAIQDAILEVLKEGSGLFPDLLVRETEAVIHKHRSATYCEQLLQHVQAVPATQ
B5: sp¦Q9UIG0¦BAZ1B_HUMAN (protein, UniProt Q9UIG0 1-1483, looked up)
Tyrosine-protein kinase BAZ1B: MAPLLGRKPFPLVKPLPGEEPLFTIPHTQEAFRTREEYEARLERYSERIWTCKSTGSSQLTHKEAWEEEQEVAELLKEEFPAWYEKLVLEMVHHNTASLEKLVDTAWLEIMTKYAVGEECDFEVGKEKMLKVKIVKIHPLEKVDEEATEKKSDGACDSPSSDKENSSQIAQDHQKKETVVKEDEGRRESINDRARRSPRKLPTSLKKGERKWAPPKFLPHKYDVKLQNEDKIISNVPADSLIRTERPPNKEIVRYFIRHNALRAGTGENAPWVVEDELVKKYSLPSKFSDFLLDPYKYMTLNPSTKRKNTGSPDRKPSKKSKTDNSSLSSPLNPKLWCHVHLKKSLSGSPLKVKNSKNSKSPEEHLEEMMKMMSPNKLHTNFHIPKKGPPAKKPGKHSDKPLKAKGRSKGILNGQKSTGNSKSPKKGLKTPKTKMKQMTLLDMAKGTQKMTRAPRNSGGTPRTSSKPHKHLPPAALHLIAYYKENKDREDKRSALSCVISKTARLLSSEDRARLPEELRSLVQKRYELLEHKKRWASMSEEQRKEYLKKKREELKKKLKEKAKERREKEMLERLEKQKRYEDQELTGKNLPAFRLVDTPEGLPNTLFGDVAMVVEFLSCYSGLLLPDAQYPITAVSLMEALSADKGGFLYLNRVLVILLQTLLQDEIAEDYGELGMKLSEIPLTLHSVSELVRLCLRRSDVQEESEGSDTDDNKDSAAFEDNEVQDEFLEKLETSEFFELTSEEKLQILTALCHRILMTYSVQDHMETRQQMSAELWKERLAVLKEENDKKRAEKQKRKEMEAKNKENGKVENGLGKTDRKKEIVKFEPQVDTEAEDMISAVKSRRLLAIQAKKEREIQEREMKVKLERQAEEERIRKHKAAAEKAFQEGIAKAKLVMRRTPIGTDRNHNRYWLFSDEVPGLFIEKGWVHDSIDYRFNHHCKDHTVSGDEDYCPRSKKANLGKNASMNTQHGTATEVAVETTTPKQGQNLWFLCDSQKELDELLNCLHPQGIRESQLKERLEKRYQDIIHSIHLARKPNLGLKSCDGNQELLNFLRSDLIEVATRLQKGGLGYVEETSEFEARVISLEKLKDFGECVIALQASVIKKFLQGFMAPKQKRRKLQSEDSAKTEEVDEEKKMVEEAKVASALEKWKTAIREAQTFSRMHVLLGMLDACIKWDMSAENARCKVCRKKGEDDKLILCDECNKAFHLFCLRPALYEVPDGEWQCPACQPATARRNSRGRNYTEESASEDSEDDESDEEEEEEEEEEEEEDYEVAGLRLRPRKTIRGKHSVIPPAARSGRRPGKKPHSTRRSQPKAPPVDDAEVDELVLQTKRSSRRQSLELQKCEEILHKIVKYRFSWPFREPVTRDEAEDYYDVITHPMDFQTVQNKCSCGSYRSVQEFLTDMKQVFTNAEVYNCRGSHVLSCMVKTEQCLVALLHKHLPGHPYVRRKRKKFPDRLAEDEGDSEPEAVGQSRGRRQKK
B6: sp¦Q8N335¦GPD1L_HUMAN (protein, UniProt Q8N335 1-351, looked up)
Glycerol-3-phosphate …: MAAAPLKVCIVGSGNWGSAVAKIIGNNVKKLQKFASTVKMWVFEETVNGRKLTDIINNDHENVKYLPGHKLPENVVAMSNLSEAVQDADLLVFVIPHQFIHRICDEITGRVPKKALGITLIKGIDEGPEGLKLISDIIREKMGIDISVLMGANIANEVAAEKFCETTIGSKVMENGLLFKELLQTPNFRITVVDDADTVELCGALKNIVAVGAGFCDGLRCGDNTKAAVIRLGLMEMIAFARIFCKGQVSTATFLESCGVADLITTCYGGRNRRVAEAFARTGKTIEELEKEMLNGQKLQGPQTSAEVYRILKQKGLLDKFPLFTAVYQICYESRPVQEMLSCLQSHPEHT

The test relates to human HL60 cells. The experiment in a line: SWATH-MS proteomics, differential protein representation, akirin2 KO vs WT HL60 cells. The test is classed as cell-based. The conditions noted are these: akirin2 KO vs WT HL60 cells; sheet "Under-represented in KO". The method in brief:
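WT and akirin2 KO HL60 lysates (150 µg, n=3 biological replicates) were FASP trypsin-digested and desalted. A spectral library was built by IDA from 3 µg digests, then 5 µg per sample went to variable-window SWATH DIA over a 120-min 5–30% acetonitrile gradient. Identifications were accepted at 1% global FDR, with total-area-sum normalization.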
Consider B1, for which the “Fold Change” value came out at 0.682 and the “Log (Fold Change)” value is -0.1662.
With B2, the “Fold Change” value was 0.6785 and the “Log (Fold Change)” value was -0.1685.
Take B3: the “Fold Change” value was found to be 0.6822 and the “Log (Fold Change)” value was -0.1661.
For the molecule B4, the “Fold Change” value was found to be 0.3018 and the “Log (Fold Change)” value was -0.5202.
The like results for B5 were, in that order, 0.6821 and -0.1661.
Consider B6, for which the “Fold Change” value came to 0.6832 and the “Log (Fold Change)” value is -0.1655.
